In assay [1] the target is Moniliophthora perniciosa necrosis- and ethylene-inducing protein 2 (MpNep2) (Moniliophthora perniciosa). The assay can be described thus: SEC; preparative Sephacryl S100 16/60 and analytical UFLC on Superdex 200 or 75, 0.7 mL/min; 20 mM phosphate pH 7.4, 80 mM NaCl; also at different ionic strengths and after 1 mM 2-mercaptoethanol. Background: SEC sorts molecules by how far they enter the pores of the column.

The target is the same in assay [2]. The assay can be described thus: dynamic light scattering; monomer 120 uM and dimer 45 uM in 20 mM phosphate, 80 mM NaCl, pH 7.4, 25°C.

Usually stoichiometry N stands for a count of units in the complex or per binding partner.

Take “Moniliophthora perniciosa necrosis- and ethylene-inducing protein 2 (MpNep2) (natural protein)”: the stoichiometry N in assay [1] and in assay [2] was 2 in each case.

These data come from paper PMC3454426.
